In US5891439:

Target: mouse CD8 (mouse) (UniProt P01731)
Assay: cell ELISA on dried mouse thymocytes containing CD8+ cells, detection with biotinylated MO3

Substance: native trypanosome-derived lymphocyte triggering factor (TLTF), antibody affinity purified (ligand)
- dilution of TLTF down to which a signal above background was obtained: 0.001 dilution
